Assay: yeast display, Sf9 membrane polyspecificity reagent, FACS + sequencing; frameworks hold sequencing errors
Method in brief: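 Sorting gates, low and high (top ~1%), were placed on anti-HA fluorescence to track expression and on streptavidin fluorescence to track reagent binding. A clone's polyreactivity label is taken from the gate it came out of. The reagent was 10% biotinylated, detergent-solubilized Sf9 membrane, applied for 1 hour at 4 °C to galactose-induced yeast display cells.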
For “QVQLVESGGGLVQAGGSLRLSCAASGSTYYTNAMGWYRQAPGKERELVATITSSGGITSYADSVKGRFTISRDNAKNTVYLQMNSVKPEDTAVYYCAADFGSSYDTHEYGYWGQGTQVTVSS”, the “polyreactivity (PSR sort gate)” value was “low polyreactivity”. For “QVQLVESGGGLVQAGGSLRLSCAASGSTYYYNAMGWYRQAPGKERELVARISRSGGSTYADSVKGRFSISRDNAKNTVYLQMNSLKPEDTAVYYCNAYAYGTPEFTSYAVRYDYWGQGTQVTVSS”, the “polyreactivity (PSR sort gate)” value was “low polyreactivity”. In the case of “QVQLVESGGGLVQAGGSLRLSCAASGSYFTYNRMGRYRQAPGKEREFVAANTWTGGSTYADSVKGRFTISRDNAKYTVYLQMNSLKPEDTAVYYCAAVRRFSWYTPVTTRRYYYWGQGTQVTVSS”, the “polyreactivity (PSR sort gate)” value is reported as “high polyreactivity”. For “QVQLVESGGGLVQAGGSLRLSCAASGTFAFYTMGWYRQAPGKERELVAAISWDGGDTYYADSVKGRFTISRDNAKNTVYLQMNSLKPEDTAVYYCAADYSNSGYGYWGQGTQVTVSS”, the “polyreactivity (PSR sort gate)” value was “low polyreactivity”. In the case of “QVQLVESGGGLVQAGGSLRLSCAASGTFAGNAMGCYRQSPGKERELVASITTGGRTYYADSVKGRFTISRDNAKNTVYLQMNSLKPEDTAVFYCSADLIRELEFDYWGQGTQVTVSS”, the “polyreactivity (PSR sort gate)” value is reported as “low polyreactivity”. For “QVQLVESGGGLVQAGGSLRLSCAASGTFAIYAMGWYRQAPGKERELVAAIRWRGGRTYYADSVKGRFTISRDNAKNTVYFQMNSLKPEDTAVYYCAAEVPYYWWSPYRVDVGYWGQGTQVTVSS”, the “polyreactivity (PSR sort gate)” value was “high polyreactivity”. With “QVQLVESGGGLVQAGGSLRLSCAASGTFDAYAMGWYRQAPGKERELVASISSSGGSTYYADSVKGRFTISRDNAKNTVYLQMNSLKPEDTAVYYCAATDFWYSGYYWGQGTQVTVSS” the “polyreactivity (PSR sort gate)” value was “low polyreactivity”. For “QVQLVESGGGLVQAGGSLRLSCAASGTFDTYSMGWNRQAPGKERELVADISSVGSTYYADSVKWRFTISRDNAKNTVYLQMNSLKPEDTAVYYCAATYPYPYYYIEYYYWGQGTQVTVSS”, the “polyreactivity (PSR sort gate)” value was “low polyreactivity”. In the case of “QVQLVESGGGLVQAGGSLRLSCAASGTFGGYAMGWYRQAPGKEREFVAAIDYGGGSTYYADSVKGRFTMSRDNAKNTVYLQMNSLKPEDTAVYYCAAEHWGYTYDQDFSTWATIYEYWGQGTQVTVSS”, the “polyreactivity (PSR sort gate)” value is reported as “high polyreactivity”. With “QVQLVESGGGLVQAGGSLRLSCAASGTFKYYAMGWYIQAPGEERELVAAISRGGRTNYADSVKGRFTISRDNAKNTVYLQMTSLKPEDTAVYYCAARKADTVFKFEYWGQGTQVTVSS” the “polyreactivity (PSR sort gate)” value was “high polyreactivity”. For “QVQLVESGGGLVQAGGSLRLSCAASGTFRRYPMGWYRQEPGKERELVAAITSSGGTYYADSVKGRFTISRDNAKHTVYLQMNSLKPEDTALYYCAARDYWSRYFRPGIVGWHDYWGQGTQVTVSS”, the “polyreactivity (PSR sort gate)” value was “high polyreactivity”. In the case of “QVQLVESGGGLVQAGGSLRLSCAASGTFVTYMGLYRQAPGKERELVAAIRNGGSTNYADSVKGRFTISRDNAKNTVYLQMNSLKPEDTAVDYFTADYTYWNGWFATRDYWGQGTQVTVSS”, the “polyreactivity (PSR sort gate)” value is reported as “low polyreactivity”. With “QVQLVESGGGLVQAGGSLRLSCAASGTFWLYTMGWYRQAPGKERELVAAISLTAGNTYYADSVKGRFTISRDNAKNTVYLQMNSLKPEDTAVYYCAADHYYYTRYEYWGQGTQVTVSS” the “polyreactivity (PSR sort gate)” value was “low polyreactivity”. For “QVQLVESGGGLVQAGGSLRLSCAASGTFYRNAMGWYRQAPGKERELVAAISSGSNTDYADSVKGRFTISRDNAKNTVYLQMNSLKPEDTAVYYCAADSLARRYDYWGQGTQVTVSS”, the “polyreactivity (PSR sort gate)” value was “low polyreactivity”. In the case of “QVQLVESGGGLVQAGGSLRLSCAASGTIFASYAMGWYRQAPGKERELVAAISDGGGRTYYADSVKGRFTISRDNAKNTVYLQMNSLKPEDTAVYYCAAYAVYTYRRARGYWGQGTQVTVSS”, the “polyreactivity (PSR sort gate)” value is reported as “high polyreactivity”. With “QVQLVESGGGLVQAGGSLRLSCAASGTIFGYYAMGWDREAPGKERELVAAITVSGSRTYYADSVKGRFTISRDKAKNTVYLQMNCLKPEATAVYYCAARYVSRYWAGRYPTRQRDSWGQGTQVTVSS” the “polyreactivity (PSR sort gate)” value was “high polyreactivity”. For “QVQLVESGGGLVQAGGSLRLSCAASGTIFGYYAMGWYRQAPGKERELVAAITSDGDTYYADSVKGRFTISRDNAKNTVYLQMNSLIPEDTAVYYCNATYGGPYYIQYDYWGQGTQVTVSS”, the “polyreactivity (PSR sort gate)” value was “low polyreactivity”. With “QVQLVESGGGLVQAGGSLRLSCAASGTIFLVYAMGWYRQAPGKERELVAAITFSGGDTYADSVKGRFTISRDNAKNTVYLQMNSLKPEDTAVYYCNAPWPFYGSVVGQDFDYWGQGTQVTVSS” the “polyreactivity (PSR sort gate)” value was “low polyreactivity”. In the case of “QVQLVESGGGLVQAGGSLRLSCAASGTIFNEYAMGWYRQAPGKERELVAAISTSGDITYYADSVKGRFTISRDNAKNTVYLQMNSLKPEDTAVYYCAAKYSLLRQYNRLDYWGQGTQVTVSS”, the “polyreactivity (PSR sort gate)” value is reported as “low polyreactivity”. In the case of “QVQLVESGGGLVQAGGSLRLSCAASGTIFPTYAMGWYRQAPGKERELVAAISSIVGGTYYAHSVKGRFTISRDNAKNTVYLQMNSLKPEVTAVYYCAAPEDKYQHCIYGAYGVDYWGQGTQVTVSS”, the “polyreactivity (PSR sort gate)” value is reported as “low polyreactivity”. In the case of “QVQLVESGGGLVQAGGSLRLSCAASGTIFVGYAMGWYRQAPGKERELVAAISWSGGRTYYADSVKGRFTISRDNAKNTVYLQMNSLKPEDTAVYYCAAPRYGGWRSYQKYDYWGQGTQVTVSS”, the “polyreactivity (PSR sort gate)” value is reported as “high polyreactivity”. For “QVQLVESGGGLVQAGGSLRLSCAASGTIFVNNAMGWYRQAPGKERELVAAIRRSGGNTYYADSVKGRFTISRDNAKNTVYLQMNSLKPEDTAVYYCNVVRRADSIRAKSRDYWGQGTQVTVSS”, the “polyreactivity (PSR sort gate)” value was “high polyreactivity”. With “QVQLVESGGGLVQAGGSLRLSCAASGTILSFNAMAWYRQAPGKERELVAAMSRGGSTNYADSVKGRFTISRDNEKNTVYLQMNCLIPEDTAVYYCAALRPYGKEDVSDGGMDYWGQGTQVTVSS” the “polyreactivity (PSR sort gate)” value was “high polyreactivity”. For “QVQLVESGGGLVQAGGSLRLSCAASGTIYDGYAMGWYRQAPGKERELVAAINTSGGTTYYADSENGRFTISRDKAKNNGYLQMNSLKPEETAVYYCNAHNHLPPYDYWGQGSQVTVSS”, the “polyreactivity (PSR sort gate)” value was “low polyreactivity”. For “QVQLVESGGGLVQAGGSLRLSCAASGTMGWYRQAPGKERELVAANSSSDRTSYADSVKGRFTISRDNAKNTVYLQMNSLKPEDTAVYYCNASTVFAWRTSTLKLFYTAHDYWGQGTQVTVSS”, the “polyreactivity (PSR sort gate)” value was “low polyreactivity”. For “QVQLVESGGGLVQAGGSLRLSCAASGTTFAGYAMGWYRPEPGKERELVSAISSGDSTNYADSVKGRFTISRDNAKNTVYLQMNSLKPEDTAVYYCNAEYRTRVFWWAASSYDYWGQGTQVTVSS”, the “polyreactivity (PSR sort gate)” value was “low polyreactivity”. With “QVQLVESGGGLVQAGGSLRLSCAASGTTFGAYAMGWYRQARGKERELVAVITWNDGSTYYADSVKGRFTISRDNAKNTVYLHMNSLKPEDTAVYYCAAEYAVSWSAFDWNYYYWGQGTQVTVSS” the “polyreactivity (PSR sort gate)” value was “high polyreactivity”. In the case of “QVQLVESGGGLVQAGGSLRLSCAASGTTFGYYAMGSYRQPPGKDREFVAAISSSGGSTYYPDSVKGRFTISRDNAKNTVYLQMNSLKPEDTAVYYCARVGFPGFYWGQGTEVTVSS”, the “polyreactivity (PSR sort gate)” value is reported as “high polyreactivity”. With “QVQLVESGGGLVQAGGSLRLSCAASGTTFLINAMGWYRQAPGKERELVATISSGGSTYYADSVKGRFTISRDNAKNNVYLQMNSLKPEDTAVYFCAADPDRTAYDYWGQGTQVTVSS” the “polyreactivity (PSR sort gate)” value was “low polyreactivity”. For “QVQLVESGGGLVQAGGSLRLSCAASGTTFPAYAMGWYRQAPGKERELVAVINLSGSTYYADSVKGRFTISRDNAKNTVYLQMNSLKPEDTAVYYCNARQYDYYRYGYWGQGTQVTVSS”, the “polyreactivity (PSR sort gate)” value was “low polyreactivity”. With “QVQLVESGGGLVQAGGSLRLSCAASGTTFRLYAMGWSIQAPGKERELVAAISRSGRTNYADSVKGSFTISRDNAKNTVYLQLNSLKPEDTAVYYCATVPGKCGDYWGQGTQVTVSS” the “polyreactivity (PSR sort gate)” value was “high polyreactivity”.

Source: the nanobody polyreactivity screen of Harvey et al. (2022)
